Read-outs that look alike come from different tables or passages of the source. Blank lines part the entries; values can stand above or below the molecule they belong to. *1 amine or outer side, *2 acyl side, *3 side chain or, on linkers, in order; H or OH if unused. Where a SMILES comes first, the peptide text is derived from it. Bridges are numbered along the chain shown (N, C = ends). Where no end group is shown, it is not given here. Side-chain parts run from the residue outwards. [ ]: non-standard residue; d: D form. S6H = (2S)-2-aminooct-7-enoic acid, C=CCCCC[C@H](N[*:1])C(=O)[*:2]; OXA12 = PEG spacer connecting glycine to cholesterol; dNle(6-ylidene) = O=C([C@@H](CCCC=[*:3])N[*:1])[*:2]; dGly(6-heptenyl) = C=CCCCCC[C@@H](N)C(=O)O; Ala(5-hexenyl) = C=CCCCCC[C@H](N)C(=O)O; Gla = N[C@@H](CC(C(=O)O)C(=O)O)C(=O)O; R5H = not defined here; MA = not defined here
Legend:
[1] = target: T1, ABCA1 cholesterol transporter protein (Mus musculus, UniProt P41233); assay: ABCA1-dependent cholesterol efflux from RAW mouse macrophage cells (in vitro RCT assay); format: cell-based
T1 construct: endogenous in cells
Text: Peptides of the present invention were designed based on amphipathic properties and their abilities to solubilize phospholipids and promote cholesterol efflux. The most direct functional measurement of efficacy for the ApoA-1 peptide mimetic is its capacity to improve the efflux of cholesterol from the cell. The RAW and J774 cell lines are reliable mouse macrophage cell lines frequently used in the art for this purpose. […] The RAW cell line is preferred and recited in the description below.
In the present assay, the RAW cells are plated at 1.5×10^5 cells/200 μl/well/48-well plate in DMEM complete medium (with 10% FBS from INVITROGEN and 1% penicillin-streptomycin-glutamine from GIBCO) and ^3H-cholesterol at 5 μCi/ml. After 24 hours incubation in a moist 37° C. atmosphere with 5% CO2, the spent medium is removed, the cells are washed once with serum-free DMEM (0.1% fatty acid free bovine serum albumin replaces the FBS), and fresh serum-free medium (200 μl) is added to each well. After overnight incubation in the serum-free medium to allow the cellular cholesterol pools to equilibrate, the spent medium is removed, and fresh serum-free medium is added with/without CPT-cAMP (150 μM final). Eight-point serial titrations of the peptide/s being tested are added at this time (duplicate titrations in plain medium without cAMP and duplicate titrations in medium containing cAMP).
After 24 hours incubation in the various conditions, the medium is harvested from each well and 50 μl aliquots are counted. The cells are then lysed by adding 500 μl of HEPES/Triton lysis buffer to each well. The lysis is facilitated by freezing and thawing once. After thawing, the lysates are mixed well and 50 μl aliquots are counted.
The percent efflux of each peptide in each medium condition (±cAMP) is calculated by dividing the total counts in the medium by the sum of the total counts in the medium and lysate. The percent efflux seen with plain medium is subtracted from the percent efflux seen with the cAMP-stimulated efflux to yield the reported ABCA1-stimulated values. EC50 values are determined using PRISM software (Table 2).

[2] = target: ATP-binding cassette transporter A1 (ABCA1) (mouse, UniProt P41233 1-2261); assay: cell-based or functional assay
[3] = read-out: EC50 in the cholesterol efflux assay (RCT in vitro assay)

ATP-binding cassette transporter A1 (ABCA1), sequence (P41233 whole entry): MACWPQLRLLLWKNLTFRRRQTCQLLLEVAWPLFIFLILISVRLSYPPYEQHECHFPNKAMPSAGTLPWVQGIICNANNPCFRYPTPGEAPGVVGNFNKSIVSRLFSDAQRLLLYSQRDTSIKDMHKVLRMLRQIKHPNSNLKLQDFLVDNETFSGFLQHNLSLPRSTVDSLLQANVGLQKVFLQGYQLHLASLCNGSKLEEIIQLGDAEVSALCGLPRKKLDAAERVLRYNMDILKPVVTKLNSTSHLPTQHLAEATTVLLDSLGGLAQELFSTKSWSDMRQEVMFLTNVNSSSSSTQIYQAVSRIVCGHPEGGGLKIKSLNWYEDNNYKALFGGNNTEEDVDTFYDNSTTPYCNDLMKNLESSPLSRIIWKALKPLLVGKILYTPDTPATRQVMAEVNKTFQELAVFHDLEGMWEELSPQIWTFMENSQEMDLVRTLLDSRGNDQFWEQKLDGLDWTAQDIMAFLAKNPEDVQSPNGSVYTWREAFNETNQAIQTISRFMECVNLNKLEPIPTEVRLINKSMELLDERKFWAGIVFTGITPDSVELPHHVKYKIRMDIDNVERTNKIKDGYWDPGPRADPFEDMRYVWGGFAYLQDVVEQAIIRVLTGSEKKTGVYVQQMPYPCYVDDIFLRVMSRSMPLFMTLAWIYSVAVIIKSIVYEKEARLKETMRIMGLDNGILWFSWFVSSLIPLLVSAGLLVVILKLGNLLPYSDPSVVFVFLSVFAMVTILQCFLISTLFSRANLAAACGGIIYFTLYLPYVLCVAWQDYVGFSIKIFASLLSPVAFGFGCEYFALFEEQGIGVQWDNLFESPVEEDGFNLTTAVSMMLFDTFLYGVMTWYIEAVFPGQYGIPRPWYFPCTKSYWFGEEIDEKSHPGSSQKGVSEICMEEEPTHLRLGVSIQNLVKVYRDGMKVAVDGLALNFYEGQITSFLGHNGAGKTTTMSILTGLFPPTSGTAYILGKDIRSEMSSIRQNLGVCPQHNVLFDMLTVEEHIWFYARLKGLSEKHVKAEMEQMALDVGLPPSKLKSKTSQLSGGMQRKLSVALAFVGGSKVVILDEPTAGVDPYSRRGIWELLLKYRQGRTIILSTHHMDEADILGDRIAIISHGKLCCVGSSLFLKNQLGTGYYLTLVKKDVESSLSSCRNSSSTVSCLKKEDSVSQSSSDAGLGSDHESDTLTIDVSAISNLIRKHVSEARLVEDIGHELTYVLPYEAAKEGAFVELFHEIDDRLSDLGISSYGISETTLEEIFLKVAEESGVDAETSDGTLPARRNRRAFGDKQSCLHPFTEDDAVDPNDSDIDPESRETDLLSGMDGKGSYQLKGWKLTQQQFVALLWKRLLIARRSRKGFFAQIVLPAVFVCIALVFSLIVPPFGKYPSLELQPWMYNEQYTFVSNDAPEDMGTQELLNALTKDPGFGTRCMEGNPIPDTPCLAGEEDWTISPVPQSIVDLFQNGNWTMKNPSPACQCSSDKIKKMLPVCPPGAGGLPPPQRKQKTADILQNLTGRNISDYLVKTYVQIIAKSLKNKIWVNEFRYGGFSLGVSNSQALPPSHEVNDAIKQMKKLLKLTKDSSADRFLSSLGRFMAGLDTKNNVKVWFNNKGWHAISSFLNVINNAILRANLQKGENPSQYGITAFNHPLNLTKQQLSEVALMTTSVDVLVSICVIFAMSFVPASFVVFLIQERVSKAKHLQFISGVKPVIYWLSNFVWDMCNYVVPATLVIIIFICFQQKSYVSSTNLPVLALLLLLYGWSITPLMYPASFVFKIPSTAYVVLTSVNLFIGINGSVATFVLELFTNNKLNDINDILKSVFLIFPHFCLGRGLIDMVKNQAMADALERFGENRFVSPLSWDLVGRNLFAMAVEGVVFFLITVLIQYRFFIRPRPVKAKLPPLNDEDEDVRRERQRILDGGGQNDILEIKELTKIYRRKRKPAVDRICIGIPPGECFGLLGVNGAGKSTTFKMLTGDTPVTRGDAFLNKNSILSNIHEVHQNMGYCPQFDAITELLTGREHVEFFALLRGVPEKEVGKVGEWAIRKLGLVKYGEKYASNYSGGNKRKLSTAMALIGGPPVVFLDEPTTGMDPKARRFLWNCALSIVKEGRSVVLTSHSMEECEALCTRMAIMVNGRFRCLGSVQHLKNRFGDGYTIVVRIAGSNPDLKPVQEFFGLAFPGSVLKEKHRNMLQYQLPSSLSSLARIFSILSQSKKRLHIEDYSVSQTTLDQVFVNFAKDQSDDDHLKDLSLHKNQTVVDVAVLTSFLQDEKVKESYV
T1 sequence (P41233 whole entry): as above

Molecule: C=CCCCCC[C@H](NC(=O)[C@H](CCC(=O)O)NC(=O)[C@H](CC(N)=O)NC(=O)[C@H](CC(C)C)NC(=O)[C@H](CCCCN)NC(=O)[C@H](CCC(=O)O)NC(=O)[C@H](CCCNC(=N)N)NC(=O)[C@H](Cc1ccccc1)NC(=O)[C@H](CCC(=O)O)NC(=O)[C@H](CC(=O)O)NC(=O)[C@H](CC(C)C)NC(=O)[C@@H](NC(=O)[C@@H]1CCCN1C(C)=O)C(C)C)C(=O)N[C@@H](CC(C)C)C(=O)N[C@@H](CCC(=O)O)C(=O)N[C@@H](C)C(=O)N[C@@H](CC(C)C)C(=O)N[C@@H](CCCCN)C(=O)N[C@@H](CCC(N)=O)C(=O)N[C@@H](CCCCN)C(=O)N[C@@H](CC(C)C)C(=O)N[C@@H](CCCCN)C(N)=O [SEQ ID NO 29, PVLDEFREKLNES7HLEALKQKLK] (Ac-PVLDEFREKLNE[Ala(5-hexenyl)]LEALKQKLK-NH2)
EC50 [1, 3]: 2000 nM

Molecule: CC(=O)N1CCC[C@H]1C(=O)N[C@H](C(=O)N[C@@H](CC(C)C)C(=O)N[C@@H](CC(=O)O)C(=O)N[C@@H](CCC(=O)O)C(=O)N[C@@H](Cc1ccccc1)C(=O)N[C@@H](CCCNC(=N)N)C(=O)N[C@@H](CCC(=O)O)C(=O)N[C@@H]1CCCC=CCCC[C@H](C(=O)N[C@@H](CC(C)C)C(=O)N[C@@H](CCC(=O)O)C(=O)N[C@@H](C)C(=O)N[C@@H](CC(C)C)C(=O)N[C@@H](CCCCN)C(=O)N[C@@H](CCC(N)=O)C(=O)N[C@@H](CCCCN)C(=O)N[C@@H](CC(C)C)C(=O)N[C@@H](CCCCN)C(N)=O)NC(=O)[C@H](CCC(=O)O)NC(=O)[C@H](CC(N)=O)NC(=O)[C@H](CC(C)C)NC1=O)C(C)C [compound 12] (Ac-PVLDEFRE[dNle(6-ylidene)]LNE[dNle(6-ylidene)]LEALKQKLK-NH2; staple 9-13; C-terminus assumed)
EC50 ([1]; read-out: ABCA1-DEPENDENT CHOLESTEROL EFFLUX EC50): 10000 nM

Molecule: C=CCCCCC[C@H](NC(=O)[C@H](CCC(=O)O)NC(=O)[C@H](CC(N)=O)NC(=O)[C@H](CC(C)C)NC(=O)[C@H](CCCCN)NC(=O)[C@H](CCC(=O)O)NC(=O)[C@H](CCCN=C(N)N)NC(=O)[C@H](Cc1ccccc1)NC(=O)[C@H](CCC(=O)O)NC(=O)[C@H](CC(=O)O)NC(=O)[C@H](CC(C)C)NC(=O)[C@H](CCCCCC=C)NC(=O)[C@@H]1CCCN1C(C)=O)C(=O)N[C@@H](CC(C)C)C(=O)N[C@@H](CCC(=O)O)C(=O)N[C@@H](C)C(=O)N[C@@H](CC(C)C)C(=O)N[C@@H](CCCCN)C(=O)N[C@@H](CCC(N)=O)C(=O)N[C@@H](CCCCN)C(=O)N[C@@H](CC(C)C)C(=O)N[C@@H](CCCCN)C(N)=O [SEQ ID NO 42, PS7HLDEFREKLNES7HLEALKQKLK] (Ac-P[Ala(5-hexenyl)]LDEFREKLNE[Ala(5-hexenyl)]LEALKQKLK-NH2)
EC50 [1, 3]: 300 nM

Molecule: C=CCCCCC[C@H](NC(=O)[C@H](CCC(=O)O)NC(=O)[C@H](CC(N)=O)NC(=O)[C@H](CC(C)C)NC(=O)[C@H](CCCCN)NC(=O)[C@H](CCC(=O)O)NC(=O)[C@H](CCCNC(=N)N)NC(=O)[C@H](Cc1ccccc1)NC(=O)[C@H](CCC(=O)O)NC(=O)[C@H](CC(=O)O)NC(=O)[C@H](CC(C)C)NC(=O)[C@@H](NC(=O)[C@@H]1CCCN1C(C)=O)C(C)C)C(=O)N[C@@H](CC(C)C)C(=O)N[C@@H](CC(C(=O)O)C(=O)O)C(=O)N[C@@H](C)C(=O)N[C@@H](CC(C)C)C(=O)N[C@@H](CCCCN)C(=O)N[C@@H](CCC(N)=O)C(=O)N[C@@H](CCCCN)C(=O)N[C@@H](CC(C)C)C(=O)N[C@@H](CCCCN)C(N)=O [SEQ ID NO 47, PVLDEFREKLNES7HL-GLA-ALKQKLK] (Ac-PVLDEFREKLNE[Ala(5-hexenyl)]L[Gla]ALKQKLK-NH2; C-terminus assumed)
EC50 [1, 3]: 700 nM

Molecule: Ac-PVLDEFRE[R5H]LNE[R5H]LEALKQKLK (reading uncertain) [R5H [K9-E13]R5H OPEN]
ABCA1-dependent cholesterol efflux EC50 [2]: 46000 nM

Molecule: Ac-PVLDEFREKLNE[R5H]LEA[R5H]KQKLK (reading uncertain) [R5H [E13-L17]R5H OPEN]
ABCA1-dependent cholesterol efflux, % at 30 uM [2]: < 3%

Molecule: Ac-[dP][dV][dL][dD][dE][dGly(6-heptenyl)][dR][dE][dK][dL][dN][dE][dGly(6-heptenyl)][dL][dE][dA][dL][dK][dQ][dK][dL][dK] [D-CONS[R7H^6,13]]
ABCA1-dependent cholesterol efflux, % at 100 uM [2]: 17.7%

Molecule: Ac-[dP][dV][dL][dD][dE][dGly(6-heptenyl)][dR][dE][dK][dL][dN][dE][dE][dL][dE][dA][dL][dK][dQ][dK][dL][dK] (not fully specified (C-terminus)) [D-CONS[R7H^6]]
ABCA1-dependent cholesterol efflux, % at 100 uM [2]: 19%

Molecule: PXLDEXREKLNEXLXALKQKLK (not fully specified; N-terminal acetyl (Ac-Pro); S7H at 2, 6 and 13; Gla at 15) [CONS[GLA^15, S7H^2,6,13]]
ABCA1-dependent cholesterol efflux EC50 [2]: 600 nM

The next lines start with the values.

ABCA1-dependent cholesterol efflux EC50 [2]: 41000 nM
Molecule: Ac-PVLDEFREKLNE[Ala(5-hexenyl)]LEALKQKLKPVLDEFREKLNE[Ala(5-hexenyl)]LEALKQKLK [CONS[S7H^13]2]

ABCA1-dependent cholesterol efflux, % at 100 uM [2]: 1%
Molecule: Ac-PVLDE[Ala(5-hexenyl)]REKLNE[Ala(5-hexenyl)]LEALKQKLKGC(branched mPEG 40 kDa) [CONS[S7H^6,13]-GC-PEG40]

ABCA1-dependent cholesterol efflux EC50 [2]: 1200 nM
Molecule: Ac-[dP][dV][dL][dD][dE][S6H][dR][dE][dK][dL][dN][dE][dGly(6-heptenyl)][dL][dE][dA][dL][dK][dQ][dK][dL][dK] (not fully specified (C-terminus)) [D-CONS[S6H^6, R7H^13]]

ABCA1-dependent cholesterol efflux EC50 [2]: 3000 nM
Molecule: Ac-[dP][dV][dL][dD][dE][Ala(5-hexenyl)][dR][dE][dK][dL][dN][dE][Ala(5-hexenyl)][dL][dE][dA][dL][dK][dQ][dK][dL][dK] (not fully specified (C-terminus)) [D-CONS[S7H^6,13]]

ABCA1-dependent cholesterol efflux EC50 [2]: 2000 nM
Molecule: Ac-P[Ala(5-hexenyl)]LDE[Ala(5-hexenyl)]REKLNE[Ala(5-hexenyl)]LEALKQ[Ala(5-hexenyl)]LK [CONS[S7H^2,6,13,20]]

ABCA1-dependent cholesterol efflux EC50 [2]: 1100 nM
Molecule: Ac-[dP][dV][dL][dD][dE][dF][dR][dE][dK][dL][dN][dE][dGly(6-heptenyl)][dL][dE][dA][dL][dK][dQ][dK][dL][dK] [D-CONS[R7H^13]]

ABCA1-dependent cholesterol efflux EC50 [2]: 1500 nM
B1: (CONS[S7H^6,13]-GC)2 (peptide)
peptide: Ac-PVLDE[Ala(5-hexenyl)]REKLNE[Ala(5-hexenyl)]LEALKQKLKGCPVLDE[Ala(5-hexenyl)]REKLNE[Ala(5-hexenyl)]LEALKQKLKGC
modifications: disulfide 24-48; also: homodimer of two 24-residue chains listed as one 48-residue chain, second N-terminal acetyl not placed

ABCA1-dependent cholesterol efflux EC50 [2]: 2400 nM
Molecule: Ac-P[Ala(5-hexenyl)]LDE[Ala(5-hexenyl)]REKLNE[Ala(5-hexenyl)]L[Gla]ALKQ[Ala(5-hexenyl)]LK [CONS[S7H^2,6,13,20, GLA^15]]

ABCA1-dependent cholesterol efflux, % at 30 uM [2]: 1.9%
Molecule: Ac-PVLDE[Ala(5-hexenyl)]REKLNE[Ala(5-hexenyl)]LEALKQKLKGC([MA-OXA12-Gly-cholesterol]) (not fully specified; reading uncertain) [CONS[S7H^6,13]-GC-OXA12-CHOLESTEROL]

Reference: patent US20110046056A1, “APOA-1 PEPTIDE MIMETICS” (priority 2007, published 2011)
